B1: optimized anti-Grp94 4C2 antibody (mouse IgG2a, Fc substitutions S239D and I332E, afucosylated) (antibody, part only; not given: mutant mouse IgG2a and light constant, V domains shown, not shown: another chain or arm of the molecule; a dimerising Fc or GST)
VH: EVQLVETGGGLVQPKGSLKLSCAASGFTFNTNAMNWVRQAPGKGLEWVARIRSKSNNYATYYADSVKDRFTISRDDSQSMLFLQMNNLKTEDTAMYYCVRDTLAWFAYWGQGTLVTVSA
VL: QIVLTQSPAIMSASPGEKVTITCSASSSVSYMHWFQQKPDTSPKLWIYSTSNLASGVPARFSASGSGTSYSLTISRMEAEDAATYYCQQKTSYPPTFGAGTKLELK
modifications: The Fc substitutions S239D and I332E (paragraph 258 prints the second as 1332E; paragraph 22 has I332E) and the afucosylated Fc glycan lie in the constant region. The letters given do not carry them.
B2: anti-Grp94 monoclonal antibody clone 4C2 (antibody, V domains shown)
VH: EVQLVETGGGLVQPKGSLKLSCAASGFTFNTNAMNWVRQAPGKGLEWVARIRSKSNNYATYYADSVKDRFTISRDDSQSMLFLQMNNLKTEDTAMYYCVRDTLAWFAYWGQGTLVTVSA
VL: QIVLTQSPAIMSASPGEKVTITCSASSSVSYMHWFQQKPDTSPKLWIYSTSNLASGVPARFSASGSGTSYSLTISRMEAEDAATYYCQQKTSYPPTFGAGTKLELK
notes: Mouse hybridoma antibody; It was tested as hybridoma supernatant in the screens (ELISA, Meth A FACS, Biacore, binning); also called 4C2 clone hybridoma supernatant; monoclonal antibody 4C2
B3: anti-Grp94 monoclonal antibody clone 5B2 (antibody, mouse IgG2a, V domains shown)
VH: EVQLVETGGGLVQPKGSLKLSCAASGFTFNTNAMNWVRQAPGKGLEWVARIRSKSNNYATYYADSVKDRFTISRDDSQNMFYLQMNNLKTEDTAMYYCVRDTATWFAYWGQGTLVTVSA
VL: QIVLTQSPALMSASPGEKVTIACSASSSVSYMHWFQQKPGTSPKLWIYSTSNLASGVPARFSGSGSGTSYSLTISRMEAEDAATYYCQQKTSYPPTFGSGTKLEIK
notes: Mouse hybridoma antibody, tested as hybridoma supernatant
B4: anti-Grp94 monoclonal antibody clone 9A3 (antibody, mouse IgG2a, V domains shown)
VH: EVKLVESGGGLVKPGGSLKLSCAASGFTFRTYAMSWVRQTPEKRLEWVATITTGGPTYYPDNVKGRFTISRDNDRNILDLQMNSLRSEDTATYYCLRGATTGDYWGQGTTLIVSS
VL: DIVMTQSHKFMFTSVGDRVSITCKASHDVSTAVAWYQQKPGQYPKLLIYWASNRYTGVPDRFTGSGSGMDFTFTISSVQAEDLAVYYCQQHSSTPYTFGGGTRLEIK
notes: as for B3

Tests used:
[1] = target: human Grp94 on the cell surface (senescent IMR-90 human lung fibroblasts; IPF patient lung fibroblasts) (human) (UniProt P14625); assay: cell-based or functional assay
human Grp94 on the cell surface (senescent IMR-90 human lung fibroblasts; IPF patient lung fibroblasts) (human), sequence (P14625 22-803): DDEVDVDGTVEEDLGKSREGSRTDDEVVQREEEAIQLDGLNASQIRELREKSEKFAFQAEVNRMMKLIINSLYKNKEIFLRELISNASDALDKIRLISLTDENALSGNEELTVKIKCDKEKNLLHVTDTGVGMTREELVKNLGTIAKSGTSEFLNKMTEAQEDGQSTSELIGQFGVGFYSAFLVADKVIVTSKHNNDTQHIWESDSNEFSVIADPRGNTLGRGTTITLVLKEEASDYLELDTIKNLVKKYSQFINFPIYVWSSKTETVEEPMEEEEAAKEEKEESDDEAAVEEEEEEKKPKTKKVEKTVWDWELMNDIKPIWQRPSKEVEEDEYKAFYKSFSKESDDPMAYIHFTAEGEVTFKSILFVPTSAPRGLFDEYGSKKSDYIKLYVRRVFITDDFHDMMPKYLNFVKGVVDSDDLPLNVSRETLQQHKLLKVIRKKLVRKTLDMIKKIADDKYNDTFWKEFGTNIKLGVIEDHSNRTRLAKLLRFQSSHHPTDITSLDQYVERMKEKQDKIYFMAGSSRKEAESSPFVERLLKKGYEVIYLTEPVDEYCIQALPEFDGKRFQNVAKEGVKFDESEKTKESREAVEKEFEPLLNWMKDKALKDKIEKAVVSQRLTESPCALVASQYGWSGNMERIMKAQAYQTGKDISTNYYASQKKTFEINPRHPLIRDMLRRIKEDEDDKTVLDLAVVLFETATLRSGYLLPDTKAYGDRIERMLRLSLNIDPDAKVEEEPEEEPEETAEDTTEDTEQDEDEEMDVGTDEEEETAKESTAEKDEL

[2] = target: T1, recombinant human Grp94 (Creative Biomart, USA) (human, UniProt P14625 22-803, limits assumed); assay: Biacore single cycle kinetics, antibody captured, Grp94 as analyte
T1 construct: Bought recombinant protein; It served as immunogen, ELISA coat, Biacore analyte and the immobilised ligand in binning; also called rHGrp94; rhGrp94
T1 sequence (P14625 22-803 limits assumed): as the sequence (P14625 22-803) above
Experimental: Biacore single cycle analysis was performed on supernatants where the monoclonal antibody was captured with Fc on the surface as the ligand and Grp94 flowed over as the analyte. Kinetic experiments were performed on a Biacore T200 running Biacore T200 Control software V2.0.1 and Evaluation software V3.0 (GE Healthcare, Sweden). All single cycle kinetic experiments were run at 25° C. with HBS-P+ running buffer (pH 7.4) (GE Healthcare, UK) containing 1 mg/ml BSA.
Antibodies were diluted in running buffer and at the start of each cycle were loaded onto Fc2, Fc3, and Fc4 of the CM5 chip coupled with an anti-mouse capture antibody using standard amine chemistry (GE Healthcare, UK). IgGs were captured at a flow rate of 10 microliter/minute to give an immobilization level (RL) of approximately 160RU. The surface was then allowed to stabilize. Single cycle kinetic data was obtained with Grp94 (Creative BioMart, USA) as the analyte at a flow rate of 30 microliter/min to minimize any potential mass transport limitations. […] The association phase for the three injections of increasing concentrations of Grp94 was monitored for 150 seconds each time and a single dissociation phase was measured for 900 seconds following the last injection of Grp94. […]

[3] = target: T2, mouse Grp94 on the cell surface (Meth A sarcoma cells; senescent primary mouse lung fibroblasts) (mouse, UniProt P08113 22-802); assay: flow cytometry, senescent against proliferating primary mouse lung fibroblasts
T2 construct: whole, on cells; also called Grp94 expressed on the surface of Meth A cells
T2 sequence (P08113 22-802): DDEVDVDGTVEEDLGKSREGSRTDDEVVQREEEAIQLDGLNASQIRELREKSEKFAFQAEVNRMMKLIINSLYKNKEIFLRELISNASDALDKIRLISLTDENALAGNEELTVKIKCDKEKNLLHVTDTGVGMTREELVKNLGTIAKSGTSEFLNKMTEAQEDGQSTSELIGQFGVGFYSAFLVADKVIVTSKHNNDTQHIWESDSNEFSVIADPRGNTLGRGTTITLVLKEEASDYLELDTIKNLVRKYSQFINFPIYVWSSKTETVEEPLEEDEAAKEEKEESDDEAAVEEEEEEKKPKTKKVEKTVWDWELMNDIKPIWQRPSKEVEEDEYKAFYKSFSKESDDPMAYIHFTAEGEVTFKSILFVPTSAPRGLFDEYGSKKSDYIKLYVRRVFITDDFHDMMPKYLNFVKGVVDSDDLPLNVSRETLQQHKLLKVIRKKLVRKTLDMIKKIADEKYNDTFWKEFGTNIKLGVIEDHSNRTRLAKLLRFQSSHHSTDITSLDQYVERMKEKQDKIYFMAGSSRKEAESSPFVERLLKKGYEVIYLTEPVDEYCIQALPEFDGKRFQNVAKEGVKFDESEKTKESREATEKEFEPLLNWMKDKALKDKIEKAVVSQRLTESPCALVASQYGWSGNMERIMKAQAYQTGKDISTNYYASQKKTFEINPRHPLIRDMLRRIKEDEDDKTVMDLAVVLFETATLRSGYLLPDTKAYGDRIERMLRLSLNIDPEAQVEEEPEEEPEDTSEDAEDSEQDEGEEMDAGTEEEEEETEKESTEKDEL

[4] = target: T2, mouse Grp94 on the cell surface (Meth A …); assay: flow cytometry, neat hybridoma supernatant on Meth A sarcoma cells
Experimental: (§1) Mouse Meth A sarcoma cells (Cat. 400284 CLS, Germany) were cultured using standard tissue culture conditions in RPMI-1640. Cells were seeded at 1×10⁵ in 100 microliter FACS buffer in 96 well U bottom FACS plates, pelleted and resuspended in 100 microliters neat or 1 in 2 diluted supernatant sample for 30 minutes at 4° C. Cells were washed twice with PBS and resuspended in 100 microliter secondary antibody, AF647 conjugated goat anti-mouse IgG A21236 (Thermo Fisher Scientific) at 2 micrograms/ml in FACS buffer for 30 minutes at 4° C. Cells were washed twice with PBS and resuspended in 100 microliters water containing 10% CellFix (Becton Dickinson, UK). Median fluorescence intensity was measured using an Attune NxT Acoustic Focusing Cytometer (Thermo Fisher Scientific) with autosampler using acquisition parameters optimized with unstained cells and secondary labeled cells: FSC:100, SSC:340, FL1:370. The acquisition rate was 100 microliter/minute stopping at 10,000 R1 events. Positive controls consisted of commercially sourced mouse anti-Grp94 antibodies MA1-10892 (Thermo Fisher Scientific) and MAB7606 (R&D System) at 2 micrograms/ml while negative control consisted of Meth A cells incubated with secondary antibody alone.

[5] = target: T2, mouse Grp94 on the cell surface (Meth A …); assay: flow cytometry, hybridoma supernatant diluted 1:2 on Meth A sarcoma cells
Experimental: as §1

[6] = target: T3, human Grp94 on the cell surface (senescent IMR-90 human lung fibroblasts; IPF patient lung fibroblasts) (human, UniProt P14625 22-803); assay: immunofluorescence on senescent human IMR-90 cells
T3 construct: whole, on cells; also called cell surface Grp94; Grp94 on the cell surface of senescent IMR-90 cells
T3 sequence (P14625 22-803): as the sequence (P14625 22-803) above

[7] = target: T3, human Grp94 on the cell surface …; assay: flow cytometry, senescent against proliferating human IMR-90 cells
[8] = target: T3, human Grp94 on the cell surface …; assay: flow cytometry on senescent human IMR-90 cells
[9] = target: T2, mouse Grp94 on the cell surface (Meth A …); assay: ranking of clones by flow cytometry on Meth A sarcoma cells
[10] = target: T2, mouse Grp94 on the cell surface (Meth A …); assay: flow cytometry on senescent primary mouse lung fibroblasts

Binder	ADCC reporter-gene assay (Promega, mouse FcgRIV effector cells), activation of the reporter; target cells senescent IMR-90 [1] [fold]	mFcγRIV ADCC Reporter Bioassay (Promega), activation of the reporter gene; target cells senescent IMR-90 [1] [fold]	Kd [2] [nM]	Mouse FACS ratio (senescent cells / proliferating cells) [3] [ratio]	Meth A Binding (mean fluorescence intensity) [4]	Meth A Dilution 1:2 (mean fluorescence intensity) [5]	Human IF (score 1-9, 1 = best) [6] [score]	Human FACS ratio (senescent cells / proliferating cells) [7] [ratio]	Human FACS plot (score 1-9, 1 = best) [8] [score]	Top 24 by Meth A (rank score, 1 = best binder) [9] [rank]	Mouse FACS (score 1-9, 1 = best) [10] [score]
B1	20	20	–	–	–	–	–	–	–	–	–
B2	–	–	3.47	5	2690 RFU (mean fluorescence intensity)	1990 RFU (mean fluorescence intensity)	1	1	4	1	–
B3	–	–	2.5	6	819 RFU (mean fluorescence intensity)	746 RFU (mean fluorescence intensity)	3	3	3	12	–
B4	–	–	–	7	732 RFU (mean fluorescence intensity)	688 RFU (mean fluorescence intensity)	4	6	1	18	4
